From publication doi:10.1101/2025.02.13.638205, “Cryo-EM structure of endogenous Plasmodium falciparum Pfs230 and Pfs48/45 fertilization complex” (bioRxiv, 2025) come the findings set out here.

In experiment [1] the target is recombinant Pfs230 D1D2 (Plasmodium falciparum 3D7/NF54, UniProt P68874). Nature of the experiment: BLI. Particulars: both partners purified.
Experiment [2] concerns the target recombinant Pfs230 D5D6 (T1281-G1549) (Plasmodium falciparum 3D7, UniProt P68874). Nature of the experiment: BLI. Particulars: both partners purified.
In experiment [3] the target is recombinant Pfs230 D11D12 (D2446-T2818) (Plasmodium falciparum 3D7, UniProt P68874). Nature of the experiment: BLI. Particulars: both partners purified.
Chain of recombinant Pfs230 D11D12 (D2446-T2818) (P68874 2446-2818, one chain of several): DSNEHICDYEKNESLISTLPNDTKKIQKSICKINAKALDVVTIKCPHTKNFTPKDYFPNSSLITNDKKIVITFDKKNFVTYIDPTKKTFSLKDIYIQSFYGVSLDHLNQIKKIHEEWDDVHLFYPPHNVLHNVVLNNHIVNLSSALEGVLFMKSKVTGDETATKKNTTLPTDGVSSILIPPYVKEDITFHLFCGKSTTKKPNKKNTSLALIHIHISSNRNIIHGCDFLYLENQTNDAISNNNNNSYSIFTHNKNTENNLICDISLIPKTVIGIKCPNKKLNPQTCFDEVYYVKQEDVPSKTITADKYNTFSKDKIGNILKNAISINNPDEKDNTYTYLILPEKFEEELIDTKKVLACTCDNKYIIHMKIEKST
In experiment [4] the target is Pfs230, endogenous, in fixed NF54/iGP2 stage V gametocytes (Plasmodium falciparum (endogenous in …, UniProt P68874)). Nature of the experiment: immunostaining of cells or tissue. Particulars: one partner purified.
Chain of Pfs230, endogenous, in fixed NF54/iGP2 stage V gametocytes (Plasmodium falciparum (P68874 21-3135): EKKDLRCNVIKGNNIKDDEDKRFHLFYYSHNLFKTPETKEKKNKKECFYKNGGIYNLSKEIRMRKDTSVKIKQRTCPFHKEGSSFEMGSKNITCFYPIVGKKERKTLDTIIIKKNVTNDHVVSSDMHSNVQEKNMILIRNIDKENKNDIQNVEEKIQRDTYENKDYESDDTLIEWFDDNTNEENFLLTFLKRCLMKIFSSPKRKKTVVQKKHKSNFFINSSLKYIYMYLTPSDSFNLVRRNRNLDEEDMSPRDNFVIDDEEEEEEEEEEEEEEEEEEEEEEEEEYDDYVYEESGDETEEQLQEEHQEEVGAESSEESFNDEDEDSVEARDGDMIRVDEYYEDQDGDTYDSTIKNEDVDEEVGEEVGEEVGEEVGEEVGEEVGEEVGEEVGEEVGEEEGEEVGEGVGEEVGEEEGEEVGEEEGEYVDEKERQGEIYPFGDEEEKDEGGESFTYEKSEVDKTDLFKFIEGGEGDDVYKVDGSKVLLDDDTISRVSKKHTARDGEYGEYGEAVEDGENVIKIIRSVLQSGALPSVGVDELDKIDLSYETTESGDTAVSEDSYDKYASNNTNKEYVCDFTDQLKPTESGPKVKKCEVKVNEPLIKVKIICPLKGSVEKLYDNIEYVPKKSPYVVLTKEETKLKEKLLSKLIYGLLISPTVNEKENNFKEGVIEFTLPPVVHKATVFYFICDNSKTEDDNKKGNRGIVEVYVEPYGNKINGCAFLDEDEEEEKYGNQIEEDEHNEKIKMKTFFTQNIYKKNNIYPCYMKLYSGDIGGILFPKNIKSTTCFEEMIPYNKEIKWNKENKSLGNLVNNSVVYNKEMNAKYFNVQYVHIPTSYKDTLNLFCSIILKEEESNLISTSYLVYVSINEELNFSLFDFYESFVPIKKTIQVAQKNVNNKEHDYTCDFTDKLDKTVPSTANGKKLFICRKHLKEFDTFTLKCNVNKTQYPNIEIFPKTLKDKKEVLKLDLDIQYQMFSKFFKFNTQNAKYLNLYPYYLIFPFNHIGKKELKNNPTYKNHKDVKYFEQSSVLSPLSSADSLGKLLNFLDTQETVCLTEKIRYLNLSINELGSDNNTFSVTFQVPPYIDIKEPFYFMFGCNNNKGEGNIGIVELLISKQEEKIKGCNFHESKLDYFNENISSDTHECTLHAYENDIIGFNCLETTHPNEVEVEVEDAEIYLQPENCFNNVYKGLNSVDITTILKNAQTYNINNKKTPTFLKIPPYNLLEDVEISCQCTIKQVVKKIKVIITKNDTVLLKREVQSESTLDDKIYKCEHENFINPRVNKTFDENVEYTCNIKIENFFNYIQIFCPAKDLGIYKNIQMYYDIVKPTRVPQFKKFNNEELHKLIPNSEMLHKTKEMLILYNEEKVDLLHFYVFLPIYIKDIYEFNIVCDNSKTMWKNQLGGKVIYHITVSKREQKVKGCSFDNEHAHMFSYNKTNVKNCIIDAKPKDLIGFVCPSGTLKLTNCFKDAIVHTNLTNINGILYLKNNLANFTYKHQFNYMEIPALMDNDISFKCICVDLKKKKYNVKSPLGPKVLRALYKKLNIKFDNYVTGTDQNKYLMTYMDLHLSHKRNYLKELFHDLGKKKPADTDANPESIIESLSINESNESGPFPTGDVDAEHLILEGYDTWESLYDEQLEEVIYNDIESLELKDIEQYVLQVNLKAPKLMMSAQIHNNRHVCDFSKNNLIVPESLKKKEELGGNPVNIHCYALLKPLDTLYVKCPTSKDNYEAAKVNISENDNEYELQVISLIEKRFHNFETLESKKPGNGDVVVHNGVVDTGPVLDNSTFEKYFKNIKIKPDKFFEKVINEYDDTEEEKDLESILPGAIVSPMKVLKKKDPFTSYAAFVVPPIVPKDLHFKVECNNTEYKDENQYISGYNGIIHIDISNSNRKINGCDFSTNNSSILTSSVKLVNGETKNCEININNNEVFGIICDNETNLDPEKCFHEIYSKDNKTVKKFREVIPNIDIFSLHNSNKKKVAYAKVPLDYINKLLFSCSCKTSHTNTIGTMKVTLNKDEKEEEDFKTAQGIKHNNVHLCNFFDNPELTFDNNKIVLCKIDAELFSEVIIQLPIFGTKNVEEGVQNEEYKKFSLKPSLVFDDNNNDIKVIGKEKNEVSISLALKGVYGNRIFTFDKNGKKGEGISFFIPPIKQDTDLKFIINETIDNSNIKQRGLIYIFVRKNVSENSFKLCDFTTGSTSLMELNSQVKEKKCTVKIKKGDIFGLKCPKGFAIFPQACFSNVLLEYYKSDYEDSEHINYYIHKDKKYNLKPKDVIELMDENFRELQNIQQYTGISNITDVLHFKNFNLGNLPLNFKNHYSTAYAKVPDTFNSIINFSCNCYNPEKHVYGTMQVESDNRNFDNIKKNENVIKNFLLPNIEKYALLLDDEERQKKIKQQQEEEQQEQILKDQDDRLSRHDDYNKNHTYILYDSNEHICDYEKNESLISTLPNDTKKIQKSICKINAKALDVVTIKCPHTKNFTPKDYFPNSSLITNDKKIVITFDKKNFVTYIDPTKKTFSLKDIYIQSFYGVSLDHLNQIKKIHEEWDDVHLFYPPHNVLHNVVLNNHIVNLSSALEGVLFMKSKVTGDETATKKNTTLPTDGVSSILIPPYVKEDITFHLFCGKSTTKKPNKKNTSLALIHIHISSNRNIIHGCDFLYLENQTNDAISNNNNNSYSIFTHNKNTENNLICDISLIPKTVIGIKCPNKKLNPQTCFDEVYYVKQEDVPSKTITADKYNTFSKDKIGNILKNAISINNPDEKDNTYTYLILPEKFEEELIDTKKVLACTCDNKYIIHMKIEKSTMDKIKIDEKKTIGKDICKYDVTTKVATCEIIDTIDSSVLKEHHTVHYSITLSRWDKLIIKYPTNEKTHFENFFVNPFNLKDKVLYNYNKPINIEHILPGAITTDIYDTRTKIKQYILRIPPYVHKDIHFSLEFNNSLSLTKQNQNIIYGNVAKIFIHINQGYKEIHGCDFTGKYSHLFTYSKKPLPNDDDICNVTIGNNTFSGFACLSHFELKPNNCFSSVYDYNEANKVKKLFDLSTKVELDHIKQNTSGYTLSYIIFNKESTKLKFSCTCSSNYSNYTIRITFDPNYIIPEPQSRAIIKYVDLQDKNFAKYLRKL
In experiment [5] the target is T1, Pfs48/45, endogenous, from P. falciparum stage V gametocytes (Plasmodium falciparum NF54 (NF54/iGP2 …)).
T1 construct: Pfs48/45 of Plasmodium falciparum, three 6-cysteine domains (D1-D3), migrates at about 50 kDa; residues 28-428 fitted in the cryo-EM model; also called P48/45; source: endogenous, P. falciparum NF54/iGP2 Pfs230FL stage V gametocytes; co-purified with Pfs230 (StrepTactin XT, SEC) and in parasite lysate
T1 chain: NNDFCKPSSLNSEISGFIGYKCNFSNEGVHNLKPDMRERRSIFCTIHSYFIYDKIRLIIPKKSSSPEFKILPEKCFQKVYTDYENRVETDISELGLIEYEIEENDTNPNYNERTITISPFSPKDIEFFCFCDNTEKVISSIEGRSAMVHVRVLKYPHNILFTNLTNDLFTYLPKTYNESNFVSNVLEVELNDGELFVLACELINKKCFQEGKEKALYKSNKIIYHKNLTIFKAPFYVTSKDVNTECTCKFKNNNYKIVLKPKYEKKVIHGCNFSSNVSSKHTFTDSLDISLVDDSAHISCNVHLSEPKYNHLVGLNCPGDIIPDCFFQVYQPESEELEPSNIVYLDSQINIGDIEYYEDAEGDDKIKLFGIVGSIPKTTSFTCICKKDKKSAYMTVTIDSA
Nature of the experiment: pull-down. Particulars: one partner purified.

Chain of recombinant Pfs230 D5D6 (T1281-G1549) (P68874 1281-1549): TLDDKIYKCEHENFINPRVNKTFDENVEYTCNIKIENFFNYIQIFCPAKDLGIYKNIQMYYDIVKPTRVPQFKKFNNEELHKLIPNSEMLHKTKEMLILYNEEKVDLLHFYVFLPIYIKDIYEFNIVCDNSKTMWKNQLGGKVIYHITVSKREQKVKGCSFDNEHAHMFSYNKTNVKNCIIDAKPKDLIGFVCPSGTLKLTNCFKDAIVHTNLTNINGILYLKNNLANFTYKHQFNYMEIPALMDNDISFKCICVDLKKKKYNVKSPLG

B1: nanobody W2812 (VHH)
VHH: QVQLQESGGGLVQPGGSLRLSCAASGRTFSSYMMAWFRQSQGNERELVAGLTRSGVSAYYADSVKGRFTISRDNAKNTVYLQMNSLKPKDTAVYYCAAASTTYINHIYTNPSNYPHWGPGTQVTVSS
On to B1, for which the binding result in experiment [1] is given as “no binding (tested: 100 nM)”; in experiment [2], “no binding (tested: 100 nM)”; in experiment [3], “no binding (tested: 100 nM)”; in experiment [4], “binds”.

B2: anti-Pfs48/45 monoclonal antibody TB31F (antibody, V domains shown)
VH: EVQLVQSGGGLVQPGGSLRLSCAASGFTFNNYWMSWVRQAPGKGLEWVSSISNIGGTIYYPDSVKGRFTISRDNSKNTLYLQMNSLRAEDTAVYYCTRDLRMSDYFDYWGQGTMVTVSS
VL: NFMLTQPHSVSESPGKTVTISCTRSTGNIGSNYVSWYQQRPGSSPTTVIYRDDQRPSGVPDRFSGSIDRSSNSASLTISGLKTEDEADYYCHSYSTGMYIFGGGTKLTVL
On to B2, for which the binding result in experiment [5] is “binds”.

B3: nanobody W2809 (VHH)
VHH: QVQLQESGGGLVQAGGSLRLSCAASEHTFRDYAMGWFRQAPGKEREFVAAISWSGSIKYYADSVKGRFTISRDNAKRTQYLQMSSLKPEDTAVYYCAARWPGGGMWYEPPYDYWGQGTQVTVSS
Take B3: the binding result in experiment [1], in experiment [2] and in experiment [3] was “no binding” throughout.

B4: nanobody W2810 (VHH)
VHH: QVQLQESGGGLVQAGGSLRLSCAASGRTFSSYAMGWFHQAPGKEREFVASISWSGGSIRYADSVKGRFTVSRDNAKNTAYLQMNSLKPEDTGVYYCAAGPYSSDYGGFGSWGQGTQVTVSS
B4: the binding result in experiment [1] is given as “no binding (tested: 100 nM)”; in experiment [2] it was “no binding (tested: 100 nM)”; in experiment [3], “no binding (tested: 100 nM)”; in experiment [4] it was “binds”.
